The values below are quoted from earlier work in publication PMC5141497.

Like-named read-outs stand apart in the source and are kept apart here.

Data set [1] has as its target Did2 MIM1 (Saccharomyces cerevisiae) (UniProt P69771).
In data set [2] the target is Vps2 MIM1 (Saccharomyces cerevisiae) (UniProt P36108).
Data set [3] has as its target Did2 MIM1 (Saccharomyces cerevisiae) (UniProt P69771). This is another data set of the same source.

Sequence of Vps4 MIT (P52917 1-83): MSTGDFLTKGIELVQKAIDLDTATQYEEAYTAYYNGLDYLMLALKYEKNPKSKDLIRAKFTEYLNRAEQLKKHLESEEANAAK
Sequence of Did2 MIM1 (Saccharomyces cerevisiae) (P69771 176-204): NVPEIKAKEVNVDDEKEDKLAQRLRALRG
Sequence of Ist1 NTD (P53843 1-193): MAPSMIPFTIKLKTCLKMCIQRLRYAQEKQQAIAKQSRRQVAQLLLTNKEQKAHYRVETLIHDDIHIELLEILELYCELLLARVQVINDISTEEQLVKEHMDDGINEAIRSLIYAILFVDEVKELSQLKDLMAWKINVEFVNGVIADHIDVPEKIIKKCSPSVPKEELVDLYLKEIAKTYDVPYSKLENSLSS
Sequence of Vps2 MIM1 (Saccharomyces cerevisiae) (P36108 183-232): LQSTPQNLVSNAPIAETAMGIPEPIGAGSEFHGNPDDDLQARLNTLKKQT

Consider Vps4 MIT (from UniProt P52917), for which the Kd is 39 µM in data set [1] and 28 µM in data set [2].

As to Ist1 NTD (from UniProt P53843), the Kd in data set [3] is 1 µM.
